# According to patent publication US12391751B2, “Antibody against advanced glycation end products and use thereof” (Bloom Technology Corporation, priority 2018, dated 2025):
# Tests used:
# CEL-BSA = CEL-BSA (Bos taurus, UniProt P02769); assay: Specificity of SJ-5 by competitive ELISA (Example 7); assay type: binding; settings: GAL13-BSA or Glycer-AGEs-BSA immobilized, POD-labeled SJ-5 0.4 μg/mL
# Description: (§1) GAL13-BSA or Glycer-AGEs-BSA prepared into 1 μg/mL with PBS (pH 7.4) was added as an immobilized antigen at 100 μL/well to a 96-well microtiter plate (NUNC) and left at 25° C. for 1 hour. The antigen was immobilized overnight at 4° C. The plate was washed three times with PBS containing 0.05% (v/v) Tween 20 (PBS-T) and then blocked with a carbonate buffer solution (pH 9.5) containing 0.5% (w/v) gelatin for 1 hour. A POD-labeled SJ-5 antibody (0.4 μg/mL) was prepared under the same conditions as in Example 6. In order to confirm specificity, BSA containing AGEs derived from glucose (Glu-AGEs-BSA), BSA containing AGEs derived from glycolaldehyde (Glycol-AGEs-BSA), BSA containing AGEs derived from methylglyoxal (MGO-AGEs-BSA), BSA containing AGEs derived from glyoxal (GO-AGEs-BSA), BSA containing N^ε-carboxymethyllysine (CML-BSA), BSA containing N^ε-carboxyethyllysine (CEL-BSA), and bovine serum albumin (BSA) were added at 50 μL/well to the antigen-immobilized plate in the same way as above, and the POD-labeled SJ-5 antibody (50 μL) was further added thereto, and stirred with a plate mixer, and then left standing at room temperature for 1 hour. After washing, an o-phenylenediamine solution (100 μL) prepared into 0.5 mg/mL with a 0.1 M citrate-phosphate buffer solution (pH 5.0) containing 0.02% (w/v) hydrogen peroxide was added to each well and left standing at 25° C. for 10 minutes. Then, color reaction was terminated by the addition of a 1 M sulfuric acid solution (50 μL) to each well. Then, absorbance at 490 nm was measured with a microplate reader.
# Glu-AGEs-BSA = Glu-AGEs-BSA (Bos taurus, UniProt P02769); assay: as above; assay type: binding; settings: GAL13-BSA or Glycer-AGEs-BSA immobilized, POD-labeled SJ-5 0.4 μg/mL
# Glu-AGEs-BSA, sequence (P02769 25-607): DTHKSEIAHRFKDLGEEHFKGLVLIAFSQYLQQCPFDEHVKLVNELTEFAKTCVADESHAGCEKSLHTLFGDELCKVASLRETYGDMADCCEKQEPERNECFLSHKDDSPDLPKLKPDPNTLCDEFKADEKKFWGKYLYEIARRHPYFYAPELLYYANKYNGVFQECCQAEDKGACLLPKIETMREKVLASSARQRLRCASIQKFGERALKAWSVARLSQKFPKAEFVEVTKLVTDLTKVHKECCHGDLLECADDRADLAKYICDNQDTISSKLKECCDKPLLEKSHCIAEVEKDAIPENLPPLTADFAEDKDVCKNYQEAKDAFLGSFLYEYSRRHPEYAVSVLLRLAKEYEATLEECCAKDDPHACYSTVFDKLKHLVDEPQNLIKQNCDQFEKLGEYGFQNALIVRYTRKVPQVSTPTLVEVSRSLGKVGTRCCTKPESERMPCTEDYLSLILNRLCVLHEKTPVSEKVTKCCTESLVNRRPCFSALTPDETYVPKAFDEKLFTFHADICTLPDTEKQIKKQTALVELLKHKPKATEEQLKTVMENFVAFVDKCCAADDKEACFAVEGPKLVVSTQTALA
# Description: as §1
# Glycer-AGEs-BSA = Glycer-AGEs-BSA (Bos taurus, UniProt P02769); assay: Dissociation constant measurement, Biacore T200 (Example 8); assay type: binding; settings: Biacore T200, sensor chip CM5; ligand Glycer-AGEs-BSA; antibody 0 to 400 nM
# Glycer-AGEs-BSA, sequence (P02769 25-607): as above
# Description: The dissociation constant (Kd value) of the monoclonal antibody SJ-5 was measured by the following approach: BSA containing AGEs derived from glyceraldehyde (Glycer-AGEs-BSA) was diluted with a 10 mM sodium acetate solution (pH 4.0) to prepare a ligand solution with a final concentration of 100 μg/mL. Biacore T200 (GE Healthcare Japan Corp.) was used for the immobilization of the ligand and the calculation of the KD value. The ligand solution was immobilized onto sensor chip CM5 (GE Healthcare Japan Corp.) using an amine coupling kit (GE Healthcare Japan Corp.). Subsequently, antibody dilution solutions containing the monoclonal antibody diluted into concentrations from 0 to 400 nM were prepared, and the Kd value was calculated.
# [1] = tested on: retinal pigment epithelial cells (ARPE-19 cells); assay: Tight junction breakdown suppression test, impedance by xCELLigence (Example 34); assay type: cell-based
# Description: FBS (FUJIFILM Wako Pure Chemical Corp.) was added at 10% to D-MEM (FUJIFILM Wako Pure Chemical Corp.), and penicillin-streptomycin (Nacalai Tesque, Inc.) was added at 1% thereto to prepare DMEM medium. ARPE-19 cells (ATCC) were cultured in the DMEM medium using a 10 cm dish (Corning Inc.).
# xCELLigence RTCA DP system (ACEA Biosciences, Inc.) was installed in a CO2 incubator and used in a state loaded overnight or longer after the installation for stabilization. Immediately before cell preparation, DMEM medium was added at 50 μL/well to E-plate (ACEA Biosciences, Inc.), and a background was measured.
# The medium was removed from the ARPE-19 cells cultured in (1) described above, which were then washed by repeating the addition and removal of 10 mL of PBS(−) (FUJIFILM Wako Pure Chemical Corp.) twice. 1 mL of trypsin-EDTA (FUJIFILM Wako Pure Chemical Corp.) was added thereto, and the cells were dispersed by incubation in a CO2 incubator (Taitec Corp.) at 37° C. for 3 minutes. Then, the activity of trypsin was neutralized by the addition of 10 mL of DMEM medium. The neutralized cell dispersion was transferred to a 50 mL tube (Falcon) and centrifuged at 1500 rpm for 5 minutes using a centrifuge (Kubota Corp.). Then, the supernatant was discarded, and the precipitates were resuspended in 1 mL of DMEM medium. A 10 μL aliquot of the resuspended cell dispersion was mixed with 10 μL of Trypan Blue (NanoEnTek Inc.), and 10 μL thereof was added to a counting chamber (NanoEnTek Inc.). Then, the number of live cells was counted in Auto Cell Counter EVE (NanoEnTek Inc.). The cell suspension was diluted into 4.0×10^5 cells/mL with DMEM medium and inoculated at 80 μL/well to E-plate (ACEA Biosciences, Inc.).
# The impedance of the plate was measured every 15 minutes using the xCELLigence RTCA DP system to confirm the adhesion of the cells to the plate. […] After the addition, the impedance was also measured every 15 minutes.
# The impedance was measured 10 to 12 hours after the addition of A-peak-BSA and normalized to that of the A-peak-BSA addition group defined as 0.
# A-peak-BSA = A-peak-BSA (Bos taurus, UniProt P02769); assay: Suppression test of DAB oxidation of A-peak-BSA (Example 32); assay type: biochemical; settings: PB-1 1.8 mg/mL; A-peak-BSA 2 mg/mL; white LED 3000 lux overnight
# A-peak-BSA, sequence (P02769 25-607): as above
# Description: Diaminobenzidine (DAB, Dojindo Laboratories) was prepared into 5 mg/mL in a PBS solution. A-peak-BSA (2 mg/mL, PBS solution) was prepared in the same way as in Example 24. 10 μL of the DAB solution was added to a 0.6 mL microtube (Watson), and 100 μL of PBS, the PB-1 antibody (1.8 mg/mL), or a mouse IgG isotype control (Ctrl-mIgG, Thermo Fisher Scientific Inc.) was further added thereto. After stirring with a vortex mixer, 10 μL of the A-peak-BSA solution was added thereto. These solutions were stirred with a vortex mixer and then irradiated overnight with white LED (3000 lux). The solutions thus irradiated with light were stirred with a vortex mixer, then spun down, and recovered at 100 μL/well into Violamo 96-well plate (AS ONE Corp.).
# Absorbance at a wavelength of 460 nm was measured with a microplate reader (Cytation 5, BioTek Instrument Inc.) to detect oxidized DAB. The ordinate of the graph depicts a relative value to oxidized DAB detected in the antibody-untreated group (PBS addition group).
# CEL-BSA, sequence (P02769 25-607): as above
Molecule,specificity: reactivity with CEL-BSA (CEL-BSA),specificity: reactivity with Glu-AGEs-BSA (Glu-AGEs-BSA),Kd (Glycer-AGEs-BSA) [nM],suppression of A-peak-BSA-induced reduction in impedance ([1]; SJ-5 final concentration of 1 mg/mL),oxidized DAB (absorbance at 460 nm) compared with PBS or Ctrl-mIgG treatment group (A-peak-BSA),"suppression of A-peak-BSA-induced reduction in impedance ([1]; 9 μL of PB-1 at 10, 3, 1 or 0.3 mg/mL)",suppression of reduction in impedance compared with SJ-5 antibody ([1]; PB-1 even in a lower concentration region)
"SJ-5: mouse monoclonal antibody raised against GAL13-MSA; heavy-chain variable region SEQ ID NO 4, light-chain variable region SEQ ID NO 8 (antibody, listed as Mus musculus, V domains shown) VH: EVMLVESGGRLVKPGGSLKLSCAASGFTFSSYGMSWVRQTPEKRLEWVATISGGGSYTYYPDSVKGRFTISRDNVKNNLYLQMSSLRSEDTALYYCARRGAYGDYGWFAYWGQGTLVTVSA VL: DIVLTQSPATLSVTPGDSVSLSCRASQSINNNLHWYQQKSHESPRLLIKCASQSISGIPSRFSGSGSGTDFTLSINSVETEDFGMYFCQQSNSWPLTFGAGTKLELK",negative,negative,57.4,suppression of the reduction was found,,,
"PB-1: mouse monoclonal antibody raised against A-peak-BSA; heavy-chain variable region SEQ ID NO 18, light-chain variable region SEQ ID NO 22 (antibody, listed as Mus musculus, V domains shown) VH: EVRLQQSGPELVKPGTSVKISCKASGYSFTGYYMHWVKQSPVKSLEWIGRIIPYNGATSYNQNFKDKASLTVDKSSRTAYMDLHSLTSEDSAVYYCARSRYYGRAPYYFDYWGQGTTLTVSS VL: DVVVTQTPLSLPVSLGDQASISCRSSQSIVHSNGNTYLEWYLQKPGQSPKLLIYKVSNRFSGVPDRISGSGSGTDFTLKISRVEAGDLGVYSCFQGSHVPFTFGSGTKLEIK",,,,,largely decreased,significantly suppressed,stronger suppression than that by the SJ-5 antibody
